Residue numbers refer to the chain shown, from its start. Like-named read-outs stand apart in the source and are kept apart here. No end group written: not given here. *: point of attachment. DOTA = O=C(O)CN1CCN(CC(=O)O)CCN(CC(=O)*)CCN(CC(=O)O)CC1
Tests used:
[1] = target: T1, αvβ3 integrin on cells (U87MG glioblastoma cells; K562-αvβ3 cells) (UniProt P06756 31-1048; P05106 27-788); test: approximate value quoted with the imaging results; U87MG competition assay presumed
T1 construct: whole, on cells; also called cell surface αvβ3 integrin

[2] = target: T2, αvβ3 integrin (soluble / detergent-solubilized) (UniProt P06756 31-1048; P05106 27-788); test: competition with ^125I-echistatin on plate-coated detergent-solubilized integrin
T2 construct: also called integrin αvβ3; soluble αvβ3 integrin

[3] = target: αvβ5 integrin (soluble / detergent-solubilized) (UniProt P06756 31-1048; P18084 24-799); test: as above
[4] = target: α5β1 integrin (detergent-solubilized) (UniProt P08648 42-1049; P05556 21-798); test: as above
[5] = target: αiibβ3 integrin (soluble / detergent-solubilized) (UniProt P08514 32-1039; P05106 27-788); test: as above
[6] = target: T2, αvβ3 integrin (soluble / …); test: yeast display flow cytometry estimate; integrin not given
[7] = target: T1, αvβ3 integrin on cells (U87MG …); test: cell-based or functional assay
[8] = target: T3, αiibβ3 integrin on K562 cells stably transfected with αiibβ3 (UniProt P08514 32-1039; P05106 27-788); test: titration on K562-αiibβ3 cells up to 5 µM, not saturated
T3 construct: whole, on cells; also called K562-αiibβ3; K562-αiiβ3

[9] = target: T1, αvβ3 integrin on cells (U87MG …); test: direct equilibrium titration on U87MG cells, anti-His flow cytometry
[10] = target: T1, αvβ3 integrin on cells (U87MG …); test: direct equilibrium titration on K562-αvβ3 cells, anti-His flow cytometry
[11] = target: T1, αvβ3 integrin on cells (U87MG …); test: competition of synthetic 7C by recombinant 7C on U87MG cells, performed analogously
[12] = target: T1, αvβ3 integrin on cells (U87MG …); test: direct equilibrium titration on U87MG cells
[13] = target: T1, αvβ3 integrin on cells (U87MG …); test: competition with ^125I-echistatin on U87MG cells
[14] = target: T1, αvβ3 integrin on cells (U87MG …); test: competition with ^125I-echistatin on U87MG cells (also express αvβ5, α5β1); unlabeled peptide
[15] = target: T1, αvβ3 integrin on cells (U87MG …)
[16] = target: T1, αvβ3 integrin on cells (U87MG …); test: cell-based or functional assay; remark: listed apart in the source
[17] = target: T1, αvβ3 integrin on cells (U87MG …); test: competing off ^125I-echistatin, U87MG cells
[18] = target: T1, αvβ3 integrin on cells (U87MG …); test: competition on U87MG cells against 20 nM recombinant FLAG/His 7C, anti-FLAG flow cytometry

T2 sequence (P06756 31-1048, chain 1 of 2): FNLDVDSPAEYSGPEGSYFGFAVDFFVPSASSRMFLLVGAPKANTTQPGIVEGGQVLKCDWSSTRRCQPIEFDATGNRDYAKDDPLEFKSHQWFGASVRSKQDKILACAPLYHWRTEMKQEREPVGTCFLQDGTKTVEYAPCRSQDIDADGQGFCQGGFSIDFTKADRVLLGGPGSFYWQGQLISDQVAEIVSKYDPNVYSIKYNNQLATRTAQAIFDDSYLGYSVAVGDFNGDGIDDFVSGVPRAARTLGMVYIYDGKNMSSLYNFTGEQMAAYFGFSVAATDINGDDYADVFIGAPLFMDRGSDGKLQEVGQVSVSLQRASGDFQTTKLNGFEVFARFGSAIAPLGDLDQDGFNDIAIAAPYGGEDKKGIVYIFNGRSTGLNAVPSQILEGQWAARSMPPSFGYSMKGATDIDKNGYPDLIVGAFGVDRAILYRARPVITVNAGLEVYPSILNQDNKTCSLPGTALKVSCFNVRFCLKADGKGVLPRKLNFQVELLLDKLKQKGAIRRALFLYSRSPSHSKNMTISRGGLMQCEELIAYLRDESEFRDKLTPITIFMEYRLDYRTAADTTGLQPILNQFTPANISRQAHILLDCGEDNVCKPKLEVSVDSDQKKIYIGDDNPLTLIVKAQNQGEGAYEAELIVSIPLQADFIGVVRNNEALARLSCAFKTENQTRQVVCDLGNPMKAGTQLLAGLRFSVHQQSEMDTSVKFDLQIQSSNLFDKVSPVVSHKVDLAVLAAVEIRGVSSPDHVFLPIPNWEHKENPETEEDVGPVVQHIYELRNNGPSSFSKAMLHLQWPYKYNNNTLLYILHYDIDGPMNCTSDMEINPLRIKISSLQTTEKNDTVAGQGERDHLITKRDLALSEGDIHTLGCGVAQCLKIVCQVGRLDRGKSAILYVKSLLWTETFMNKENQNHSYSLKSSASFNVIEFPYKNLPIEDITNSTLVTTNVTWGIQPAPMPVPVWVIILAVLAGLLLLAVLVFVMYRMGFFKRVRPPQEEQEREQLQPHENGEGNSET
T2 sequence (P05106 27-788, chain 2 of 2): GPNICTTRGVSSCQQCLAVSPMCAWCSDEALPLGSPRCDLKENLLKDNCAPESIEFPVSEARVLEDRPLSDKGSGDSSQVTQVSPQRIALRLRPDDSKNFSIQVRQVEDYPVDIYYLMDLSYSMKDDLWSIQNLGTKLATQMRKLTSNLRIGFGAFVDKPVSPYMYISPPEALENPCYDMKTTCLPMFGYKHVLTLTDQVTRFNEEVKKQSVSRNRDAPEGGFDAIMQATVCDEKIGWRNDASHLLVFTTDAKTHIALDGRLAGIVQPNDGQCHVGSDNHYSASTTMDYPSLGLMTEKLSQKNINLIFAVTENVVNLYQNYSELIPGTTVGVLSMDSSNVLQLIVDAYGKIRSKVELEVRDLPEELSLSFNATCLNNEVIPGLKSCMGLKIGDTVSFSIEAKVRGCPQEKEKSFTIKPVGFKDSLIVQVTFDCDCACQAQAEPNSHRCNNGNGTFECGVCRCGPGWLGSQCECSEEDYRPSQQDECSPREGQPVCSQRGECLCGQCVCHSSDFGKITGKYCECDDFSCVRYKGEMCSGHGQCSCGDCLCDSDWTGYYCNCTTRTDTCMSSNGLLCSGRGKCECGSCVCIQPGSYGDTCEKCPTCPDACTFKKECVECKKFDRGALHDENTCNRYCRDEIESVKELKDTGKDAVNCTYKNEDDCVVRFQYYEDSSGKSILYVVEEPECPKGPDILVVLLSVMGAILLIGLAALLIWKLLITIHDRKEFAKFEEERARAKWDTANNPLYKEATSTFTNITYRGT
T1 sequence (P06756 31-1048, chain 1 of 2): as the sequence (P06756 31-1048, chain 1 of 2) above
T1 sequence (P05106 27-788, chain 2 of 2): as the sequence (P05106 27-788, chain 2 of 2) above
α5β1 integrin (detergent-solubilized), sequence (P08648 42-1049, chain 1 of 2): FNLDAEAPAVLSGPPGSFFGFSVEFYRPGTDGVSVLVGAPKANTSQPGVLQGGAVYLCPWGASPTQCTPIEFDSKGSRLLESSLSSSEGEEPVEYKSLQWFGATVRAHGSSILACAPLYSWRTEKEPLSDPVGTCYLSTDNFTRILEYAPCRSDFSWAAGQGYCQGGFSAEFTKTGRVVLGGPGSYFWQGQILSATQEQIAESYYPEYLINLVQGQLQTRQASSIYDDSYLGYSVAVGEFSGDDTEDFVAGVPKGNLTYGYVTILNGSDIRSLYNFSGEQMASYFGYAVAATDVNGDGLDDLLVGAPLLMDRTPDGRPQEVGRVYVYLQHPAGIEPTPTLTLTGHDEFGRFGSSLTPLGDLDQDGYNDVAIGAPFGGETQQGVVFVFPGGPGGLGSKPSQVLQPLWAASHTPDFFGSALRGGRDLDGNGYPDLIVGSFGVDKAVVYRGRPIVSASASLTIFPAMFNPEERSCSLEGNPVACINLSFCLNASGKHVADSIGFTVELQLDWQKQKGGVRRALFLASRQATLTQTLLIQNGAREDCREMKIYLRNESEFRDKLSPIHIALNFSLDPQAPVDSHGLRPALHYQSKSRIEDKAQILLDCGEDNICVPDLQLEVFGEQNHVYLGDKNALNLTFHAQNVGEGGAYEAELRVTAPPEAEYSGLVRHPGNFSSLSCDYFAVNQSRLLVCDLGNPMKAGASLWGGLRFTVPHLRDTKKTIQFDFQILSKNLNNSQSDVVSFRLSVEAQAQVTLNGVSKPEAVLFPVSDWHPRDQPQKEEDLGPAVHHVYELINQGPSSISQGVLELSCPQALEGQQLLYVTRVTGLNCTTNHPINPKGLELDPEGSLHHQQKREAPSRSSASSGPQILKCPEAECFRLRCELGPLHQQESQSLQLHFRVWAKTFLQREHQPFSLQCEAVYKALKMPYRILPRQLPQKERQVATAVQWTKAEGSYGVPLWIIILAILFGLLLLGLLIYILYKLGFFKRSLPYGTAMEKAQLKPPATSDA
α5β1 integrin (detergent-solubilized), sequence (P05556 21-798, chain 2 of 2): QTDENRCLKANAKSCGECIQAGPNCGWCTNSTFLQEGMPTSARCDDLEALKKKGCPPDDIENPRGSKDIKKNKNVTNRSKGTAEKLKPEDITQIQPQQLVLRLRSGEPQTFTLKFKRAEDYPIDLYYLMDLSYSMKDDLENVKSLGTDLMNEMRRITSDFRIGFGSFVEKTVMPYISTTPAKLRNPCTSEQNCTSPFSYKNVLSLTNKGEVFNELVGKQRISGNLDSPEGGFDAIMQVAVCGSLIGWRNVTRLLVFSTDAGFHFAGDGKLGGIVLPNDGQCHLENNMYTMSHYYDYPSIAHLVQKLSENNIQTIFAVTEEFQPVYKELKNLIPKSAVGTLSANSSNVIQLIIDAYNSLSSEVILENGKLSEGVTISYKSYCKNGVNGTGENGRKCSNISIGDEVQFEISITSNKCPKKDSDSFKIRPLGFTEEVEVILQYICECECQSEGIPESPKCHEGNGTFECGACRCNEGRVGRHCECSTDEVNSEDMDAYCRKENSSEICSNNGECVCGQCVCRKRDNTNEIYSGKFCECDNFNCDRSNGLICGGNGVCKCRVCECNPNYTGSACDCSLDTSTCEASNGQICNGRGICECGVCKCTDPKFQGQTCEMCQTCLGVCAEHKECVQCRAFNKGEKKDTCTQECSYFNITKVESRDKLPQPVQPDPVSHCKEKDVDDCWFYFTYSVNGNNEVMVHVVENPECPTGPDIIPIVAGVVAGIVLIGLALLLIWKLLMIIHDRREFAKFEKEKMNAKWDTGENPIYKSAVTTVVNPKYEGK
αvβ5 integrin (soluble / detergent-solubilized), sequence (P06756 31-1048, chain 1 of 2): as the sequence (P06756 31-1048, chain 1 of 2) above
αvβ5 integrin (soluble / detergent-solubilized), sequence (P18084 24-799, chain 2 of 2): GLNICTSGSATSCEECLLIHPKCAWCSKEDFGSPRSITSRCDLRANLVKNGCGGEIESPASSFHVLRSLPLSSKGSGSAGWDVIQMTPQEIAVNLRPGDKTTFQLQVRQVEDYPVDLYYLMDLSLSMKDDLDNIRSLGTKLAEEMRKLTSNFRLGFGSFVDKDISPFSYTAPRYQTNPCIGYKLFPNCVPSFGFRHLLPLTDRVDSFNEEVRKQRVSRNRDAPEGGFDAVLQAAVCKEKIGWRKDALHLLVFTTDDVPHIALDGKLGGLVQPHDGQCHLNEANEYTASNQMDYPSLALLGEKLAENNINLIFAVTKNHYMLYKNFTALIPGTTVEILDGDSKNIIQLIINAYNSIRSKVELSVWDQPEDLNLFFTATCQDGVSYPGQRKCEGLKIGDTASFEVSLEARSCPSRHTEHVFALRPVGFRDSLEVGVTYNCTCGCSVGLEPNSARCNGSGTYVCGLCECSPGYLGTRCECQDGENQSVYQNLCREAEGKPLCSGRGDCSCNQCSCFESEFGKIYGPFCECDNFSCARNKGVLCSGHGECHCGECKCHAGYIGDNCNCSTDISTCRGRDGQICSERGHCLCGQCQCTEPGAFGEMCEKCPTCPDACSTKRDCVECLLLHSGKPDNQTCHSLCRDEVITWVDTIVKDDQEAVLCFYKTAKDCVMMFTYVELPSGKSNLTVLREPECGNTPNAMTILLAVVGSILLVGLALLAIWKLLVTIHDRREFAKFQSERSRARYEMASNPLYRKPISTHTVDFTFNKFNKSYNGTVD

## {DOTA}-GCVTGRGDSPASSCSQDSDCLAGCVCGPNGFCG (cysteine pairing not given here) [DOTA-conjugated FN-RGD2]
[1]
  IC50: ~400 nM

## {DOTA}-GCVTGRDGSPASSCSQDSDCLAGCVCGPNGFCG (also: cystine-knot disulfides, pairing not given here) [DOTA-conjugated FN-RDG2]
[2]
  binding result: no binding
[3]
  binding result: no binding
[4]
  binding result: no binding
[5]
  binding result: no binding

## GCVTGRGDSPASSCKQDSDCLAGCVCGPNGFCG (also called FN-RGD; RDG-EETI #3) [RGD-EETI #3 (yeast-displayed)]
[6]
  Kd: 100 to 200 nM

## {DOTA}-GCPQGRGDWAPTSCSQDSDCRAGCVCGPNGFCG (cysteine pairing not given here, also called Cu-DOTA-knottin 2.5D) [DOTA-conjugated knottin peptide 2.5D]
[1]
  IC50: ~20 nM

B1: recombinant AgRP peptide 7C (FLAG and hexahistidine tagged) (peptide)
chain: DYKDDDDKGCVRLHESCLGQQVPCCDPAATCYCYGRGDNDLRCYCRHHHHHH
[7]
  adhesion (IC50; nM) of K562-αvβ3 cells to vitronectin-coated wells: 12 nM
[8]
  Kd: > 100 nM
[9]
  Kd: 1.8 nM
[10]
  Kd: 2.4 nM
[11]
  IC50: 23 nM

B2: recombinant engineered AgRP peptide 7A (FLAG and hexahistidine tagged) (peptide)
chain: B1 chain with Y34S, R42V
notes: also called 7A (5E); 5E
[7]
  adhesion (IC50; nM) of K562-αvβ3 cells to vitronectin-coated wells: 61 nM
[12]
  fold improvement over the worst binder, 6C: 17 fold
[8]
  Kd: > 100 nM
[9]
  Kd: 0.78 nM
[10]
  Kd: 0.89 nM

B3: FN-RDG (EETI-based polypeptide with a scrambled RDG sequence, negative control) (peptide)
chain: GCVTGRDGSPASSCSQDSDCLAGCVCGPNGFCG
notes: Inferred; also called scrambled FN-RDG; FN-RDG2
[13]
  binding result: no binding
[2]
  binding result: no binding (tested: 50 nM)
[3]
  binding result: no binding (tested: 50 nM)
[4]
  binding result: no binding (tested: 50 nM)
[5]
  binding result: no binding (tested: 50 nM)

## GCTGRGDSPASSKCKQDSDCLAGCVCGPNGFCG [RGD-EETI #2 (yeast-displayed)]
[6]
  affinity relative to RGD-EETI #3: ~0.5 fold

B4: Miniprotein 2.5D (synthetic, soluble) (peptide)
chain: GCPQGRGDWAPTSCSQDSDCRAGCVCGPNGFCG
notes: also called knottin peptide 2.5D; RGD-miniprotein 2.5D
[13]
  IC50: 19 nM
[14]
  IC50: 16 nM

## QCESGPCCRNCKFLKEGTICKRARGDDMDDYCNGKTCDCPRNPHKGPAT (ligand, ends and bridges not checked; cysteine pairing not given here) [echistatin (unlabeled)]
[15]
  IC50: 4.9 nM
[16]
  U87MG cell adhesion to vitronectin, IC50: 5.8 nM
[7]
  adhesion (IC50; nM) of K562-αvβ3 cells to vitronectin-coated wells: 3.2 nM

## {DOTA}-GCPRPRGDNPPLTCSQDSDCLAGCVCGPNGFCG (cysteine pairing not given here) [DOTA-conjugated knottin peptide 2.5F]
[1]
  IC50: ~20 nM

B5: synthetic AgRP peptide 7C (without epitope tags) (peptide)
chain: GCVRLHESCLGQQVPCCDPAATCYCYGRGDNDLRCYCR
notes: also called AgRP Clone 7C; Agouti peptide 7C
[17]
  IC50: 23 nM
[18]
  IC50: 22 nM

Reference: patent US20210023171A1 (published 2021)
